PMC3057327 (Methods (San Diego, Calif.), 2011)

Tests used:
[1] = target: the molecule itself; experiment: aggregates isolated by centrifugation + limited proteolysis
sedimentation assay = target: the molecule itself; experiment: sedimentation assay

Row | Protein | binding result [1] | binding result (sedimentation assay)
1 | MATLEKLMKAFESLKSFQQQQQQQQQQQQQQQQQQQQPPPPPPPPPPKK [htt^NTQ20P10K2 (huntingtin N-terminal fragment peptide)] | binds | 
2 | KKQQQQQQQQQQQQQQQQQQQQQQQKK [K2Q23K2] |  | binds
